# B1: RNA-24/DNA-22 hybrid (DNA:RNA)
# RNA: GGCAGUGGUCCAGCAGUGCGUAGC
# DNA: GCTACGCACTGCTGGACCACTG
# Legend:
# [1] = molecular target: CaMV RT RNase H mutant D421N (cauliflower mosaic virus)
# [2] = molecular target: CaMV RT (Cauliflower mosaic virus, UniProt A0A2D2PYL0 197-675); assay: gel filtration; 5 mM MgCl2; stable 1:1 complex; Gel filtration: 25 mM Hepes pH 7.5, 200 mM NaCl, 5% glycerol, 5 mM MgCl2, 1 mM DTT, 30 min on ice; crystals: protein in 20 mM Hepes pH 7.5, 200 mM NaCl, 5% glyc; settings: protein: recombinant; tags: none (N-terminal 6xHis-SUMO removed with Ulp1); 5' overhang 2 nt on RNA strand (GG), 22 bp
Molecule,"RNase H cleavage efficiency on R40/D28, 1:1:1 mixture of wt RT:mutant RT:substrate, 120 min (against ∼18% for 1:1 wt enzyme:substrate) [1]",binding result [2]
"cauliflower mosaic virus (CaMV) reverse transcriptase, wild type (from UniProt P03554 1-679) (enzyme)",60%,–
B1,–,binds
